Measured values published in article PMC2098691, “Regulation of the Xenopus Xsox17α1 promoter by co-operating VegT and Sox17 sites”.
Numbering of substitutions follows the chain as printed.

T1: VegT (Xenopus, UniProt P87377 1-455)
T1 sequence: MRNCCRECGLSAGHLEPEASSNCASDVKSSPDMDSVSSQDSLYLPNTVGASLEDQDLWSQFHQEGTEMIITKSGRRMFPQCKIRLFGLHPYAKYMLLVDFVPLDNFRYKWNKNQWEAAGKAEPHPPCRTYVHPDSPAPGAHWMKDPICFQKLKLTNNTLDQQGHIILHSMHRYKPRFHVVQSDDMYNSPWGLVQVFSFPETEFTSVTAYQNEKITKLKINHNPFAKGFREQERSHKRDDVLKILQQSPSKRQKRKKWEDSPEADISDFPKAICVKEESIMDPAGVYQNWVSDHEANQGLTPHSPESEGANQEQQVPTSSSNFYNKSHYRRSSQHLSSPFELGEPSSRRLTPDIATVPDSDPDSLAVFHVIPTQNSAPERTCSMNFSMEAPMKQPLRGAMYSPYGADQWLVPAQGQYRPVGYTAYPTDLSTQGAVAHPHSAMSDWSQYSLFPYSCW

B1: B1 T-box probe (dsDNA)
DNA 1: TGTCCAGAGTTCACACCATCATTGTTTGTTA
DNA 2: TAACAAACAATGATGGTGTGAACTCTGGACA
B2: T-box consensus (Derrière) (dsDNA)
DNA 1: B1 DNA 1 with G2C, A18T
DNA 2: B1 DNA 2 with T14A, C30G
B3: B1 T-box mutant (dsDNA)
DNA 1: TCTCCAGAGTACGCACATTCATTGTTTGTTA
DNA 2: TAACAAACAATGAATGTGCGTACTCTGGAGA

Target: T1, VegT
Assay: EMSA; poly(dI.dC); 15 µl with 3 µl MDB buffer (20 mM HEPES pH 7.9, 100 mM KCl, 12.5 mM MgCl2, 0.1 mM EDTA, 17% glycerol, 2 mM DTT (printed DDT)), 2 µg poly(dI.dC), 1 µl IVT protein, 10 min + 10 min (preincubation at 30 °C); 15% gel at 4 °C; 50-fold competitor in controls
Conditions: label: 5' 32P (forward strand), blunt

Binder	binding result
B1	binds
B2	binds
B3	no binding
